Results as given in the supplement of paper PMC9732359.
± gives the uncertainty stated by the source.

Assay: protein stability index of a GFP-peptide fusion (yeast GPS) (PSI 1-4); higher = more stable; sorted into four equal gates, so the index is relative within each strain
Procedure, shortened: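 Yeast carrying a pooled library were grown to mid-log phase in leucine-free medium. Each library plasmid expresses Cherry and has a tiled 17-residue yeast protein peptide fused downstream of GFP. Cells were sorted into four equal gates by GFP/Cherry ratio, and plasmids from each gate were PCR-amplified, Illumina-sequenced and assigned to strains by barcode. Summing, across gates, the read frequency times the gate number gave each peptide's protein stability index.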

| Sequence | protein stability index (doa10∆) | protein stability index (pdr5∆) | protein stability index (san1∆) | protein stability index (ubr1∆) |
| --- | --- | --- | --- | --- |
| QFKSKEVEKAHPIRLYT [PRP8] | 3.17 ± 0.085 | 2.88 ± 0.056 | 2.71 ± 0.063 | 2.86 ± 0.06 |
| SSDVDMDDEEWRSKRIE [RPC53] | 3.47 ± 0.1 | 3.17 ± 0.1 | 3.42 ± 0.053 | 3.31 ± 0.069 |
| ISNGTINIQKKLEPKEI [SIR4] | 2.77 ± 0.079 | 2.89 ± 0.075 | 2.37 ± 0.089 | 3 ± 0.1 |
| KVGYTLPSHIISTSDVT [RPL4A] | 2.49 ± 0.048 | 2.69 ± 0.043 | 2.58 ± 0.039 | 2.5 ± 0.035 |
| VYKIYNHVMPLKPVDKL [SIN4] | 1.84 ± 0.064 | 1.97 ± 0.072 | 1.63 ± 0.11 | 1.62 ± 0.051 |
| ILKLLNGFMESAIVNED [SOH1] | – | 3.27 ± 0.18 | 3.41 ± 0.17 | 3.57 ± 0.22 |
| SFDVAISTACPRLDDVV [SMC4] | 3.12 ± 0.083 | 3.34 ± 0.051 | 3.1 ± 0.075 | 3.11 ± 0.078 |
| NFYIQYDPKDGLYKMME [AAR2] | – | 2.21 ± 0.14 | – | – |
| IKKMLHLVWMKGTNDEG [YCS4] | 3.17 ± 0.2 | 3.51 ± 0.11 | 3.19 ± 0.16 | 3.33 ± 0.18 |
| GKISKPRFLNKQERSKQ [PRP28] | 1.9 ± 0.088 | 2.46 ± 0.13 | 3.33 ± 0.11 | 2.13 ± 0.088 |
| VQKSTKTFSYKRPSTFY [RPL20A] | 2.73 ± 0.15 | 3.34 ± 0.084 | 3.06 ± 0.085 | 2.23 ± 0.065 |
| SKAQQKTAEQVAAERAA [RPL7A] | 2.84 ± 0.064 | 2.88 ± 0.052 | 2.74 ± 0.054 | 2.68 ± 0.049 |
| LQDEVMNIKPVQKQTRA [RPS2] | 2.91 ± 0.2 | 3.12 ± 0.18 | 2.42 ± 0.14 | 3.63 ± 0.19 |
| LIPTIFRYITTWENEFL [PRP8] | 2.38 ± 0.056 | 2.04 ± 0.047 | 1.75 ± 0.054 | 2.21 ± 0.034 |
| QYSTRHDAPRGLFPFES [SWI3] | 3.14 ± 0.062 | 3.17 ± 0.073 | 3.2 ± 0.077 | 3.13 ± 0.067 |
| EHGYQSRGFEVMYNGHT [RPB2] | 2.92 ± 0.15 | 2.62 ± 0.18 | 2.88 ± 0.15 | 2.61 ± 0.19 |
| RMRFPPFDDDEPPLSYE [PRP8] | 2.63 ± 0.047 | 3.06 ± 0.051 | 2.95 ± 0.035 | 2.61 ± 0.034 |
| LEDLKDVYASKVRLNAS [PRP8] | 2.31 ± 0.043 | 2.1 ± 0.041 | 2.47 ± 0.047 | 2.27 ± 0.04 |
| DSTAVALEEGLNEEAVI [YJL039C/NUP192] | 3.08 ± 0.084 | 3.12 ± 0.04 | 2.68 ± 0.058 | 2.98 ± 0.05 |
| KMELVYVSDSDDSSSDN [SIR4] | 2.7 ± 0.059 | 2.68 ± 0.058 | 2.47 ± 0.078 | 2.59 ± 0.067 |
| TSKQHKRSGHRTAPKSD [RPL18A] | 3.18 ± 0.23 | – | 3.1 ± 0.14 | 3.06 ± 0.2 |
| EMGYLIQISKLHYTPIE [RPC82] | 1.51 ± 0.063 | 2.06 ± 0.081 | 1.95 ± 0.13 | 1.47 ± 0.055 |
| GKLGQIDYALTAVKQGV [PRE8] | 1.36 ± 0.21 | 1.93 ± 0.13 | – | 2.54 ± 0.099 |
| ISLLKNRRKQSFVLNKN [RPN4] | 3.52 ± 0.25 | 3.06 ± 0.25 | 3.04 ± 0.15 | 3.21 ± 0.14 |
| ELLEERFQDSNPYVRTK [YCS4] | 1.48 ± 0.037 | 1.76 ± 0.11 | 2.82 ± 0.076 | 2.8 ± 0.096 |
| TITKRNGAFQNSSNLSY [RRP4] | 3.04 ± 0.054 | 3.02 ± 0.057 | 3.1 ± 0.04 | 3.11 ± 0.042 |
| YTDELEEDVYLDPLARV [FAS2] | 3.33 ± 0.095 | 3.32 ± 0.1 | 3.54 ± 0.07 | 3.44 ± 0.053 |
